Reference: US20250327097A1, “ORGANISMS PRODUCING LESS CROTONIC ACID” (Global Bioenergies, priority 2021, published 2025)
Residue numbers refer to the chain shown, from its start. Names and notes keep the numbering of the source.

B1: I283S-P284D-N287P-S322T-N388M-C430N-L432F-L434W-S436N-A463G-Y469D (protein)
chain: MFLKSLREQINLLKRQGDLRIINRPVDSYLEAAAIIRRSTETKAPVPLMTNIKGYPGCSIVGGLAALSSNPEYPLSRVAMSLGLSTTASAQSIVQYLIDGLKKTPYLPVEIDSNSAPCKQNILRGEDASLAHFPIPQVHQHDGNRYVNTWGVFIVESPDGQWCNWSIQRVQYLNDRQMIALVFPSQHISDIWEEWVKIGKPMPYALVQGCEPIVPYIAGLPLLERNVNEAEYIGALYGKGIEVVKCETHDLRVPASSEVVIEGYFAITREGVEGPFGEFAGYSDNEPSLQPILSITAISWQDDPIWPVVAEGKPVDEYHTCTGIGDAAAIQNVLLTANLPVSFVWVPLYSACHLMIVSINRHWRQTHPDLTSEQLTKKVGDVIHQTRMSIKLPKIVVLDDDVDPADTESLLWALATRIHPERKRYFYESNIFPWLNCYSEEERHNRKGKRVIIDALLPENHGGISSFDDAYPDDIKQRVLMHWETDFSHD
B2: I283T-P284D-N287P-S322T-N388M-R422Q-C430N-L432F-L434W-S436N-A463G-Y469D (protein)
chain: B1 chain with S283T, R422Q
B3: N285M-N287T-S322T-N388M-K394R-C430N-L432F-L434W-S436N-dA463-S465I (protein)
chain: B1 chain with S283I, D284P, N285M, P287T, K394R, G463A, S465I, D469Y
B4: I283F-P284E-N287Q-S322T-N388M-K394R-C430N-L432F-L434W-S436N-dG462 (protein)
chain: B1 chain with S283F, D284E, P287Q, K394R, G463A, D469Y
B5: I283T-P284D-N287P-S322T-N388M-C430N-L432F-L434W-S436N-A463G-Y469T (protein)
chain: B1 chain with S283T, D469T
B6: N285M-N287T-S322T-N388M-K394R-C430N-L432F-L434W-S436N-dG462-Y469N (protein)
chain: B1 chain with S283I, D284P, N285M, P287T, K394R, G463A, D469N
B7: N285M-N287T-S322T-N388M-K394R-C430N-L432F-L434W-S436N-N460G-dG462 (protein)
chain: B1 chain with S283I, D284P, N285M, P287T, K394R, N460G, G463A, D469Y
B8: N285M-N287T-S322T-N388M-K394R-C430N-L432F-L434W-S436N-dG462-A463V (protein)
chain: B1 chain with S283I, D284P, N285M, P287T, K394R, G463V, D469Y
B9: P284E-N287Q-S322T-N388M-K394R-C430N-L432F-L434W-S436N-dG462-Y469S (protein)
chain: B1 chain with S283I, D284E, P287Q, K394R, G463A, D469S
B10: N285M-N287T-S322T-N388M-K394R-C430N-L432F-L434W-S436N-dG462-Y469S (protein)
chain: B1 chain with S283I, D284P, N285M, P287T, K394R, G463A, D469S
B11: I283T-P284D-N287P-S322T-N388M-E421T-C430N-L432F-L434W-S436N-A463G-Y469D (protein)
chain: B1 chain with S283T, E421T
B12: I283T-P284D-N287P-S322T-N388M-i421aG-C430N-L432F-L434W-S436N-A463G-Y469D (protein)
chain: B1 chain with S283T
B13: I283T-P284D-N287P-S288T-S322T-N388M-C430N-L432F-L434W-S436N-A463G-Y469D (protein)
chain: B1 chain with S283T, S288T
B14: N285M-N287T-S322T-N388M-K394R-C430N-L432F-L434W-S436N-dG462-A463M (protein)
chain: B1 chain with S283I, D284P, N285M, P287T, K394R, G463M, D469Y
B15: I283T-P284D-N287P-S322T-H384T-N388M-C430N-L432F-L434W-S436N-A463G-Y469D (protein)
chain: B1 chain with S283T, H384T
B16: S185T-N388M-C430P-L432F-L434W-S436N (protein)
chain: B1 chain with S185T, S283I, D284P, P287N, T322S, N430P, G463A, D469Y
B17: I283T-P284D-N287P-S322T-N388M-R422V-C430N-L432F-L434W-S436N-A463G-Y469D (protein)
chain: B1 chain with S283T, R422V
B18: I283L-N285M-N287T-S322T-A337T-N388M-K394R-C430N-L432F-L434W-S436N-dG462 (protein)
chain: B1 chain with S283L, D284P, N285M, P287T, A337T, K394R, G463A, D469Y
B19: I283T-P284D-N287P-S322T-N388M-C430N-L432F-L434W-S436N-G462P-A463G-Y469D (protein)
chain: B1 chain with S283T, G462P
B20: I283T-P284D-N287P-S322T-N388M-R422F-C430N-L432F-L434W-S436N-A463G-Y469D (protein)
chain: B1 chain with S283T, R422F
B21: N285M-N287T-S322T-N388M-K394R-C430N-L432F-L434W-S436N-dG462-Y469T (protein)
chain: B1 chain with S283I, D284P, N285M, P287T, K394R, G463A, D469T
B22: I283T-P284D-N287P-S322T-N388M-P393A-C430N-L432F-L434W-S436N-A463G-Y469D (protein)
chain: B1 chain with S283T, P393A
B23: P284E-N287Q-S322T-N388M-K394R-C430N-L432F-L434W-S436N-dG462-Y469D (protein)
chain: B1 chain with S283I, D284E, P287Q, K394R, G463A
B24: I283T-P284D-N287P-S322T-H384A-N388M-C430N-L432F-L434W-S436N-A463G-Y469D (protein)
chain: B1 chain with S283T, H384A
B25: N388Q-C430P-L432F-L434W-S436N (protein)
chain: B1 chain with S283I, D284P, P287N, T322S, M388Q, N430P, G463A, D469Y
B26: I283T-P284D-N287P-S322T-N388M-E421V-C430N-L432F-L434W-S436N-A463G-Y469D (protein)
chain: B1 chain with S283T, E421V
B27: N285M-N287T-S322T-N388M-K394R-C430N-L432F-L434W-S436N-dA463-A470S (protein)
chain: B1 chain with S283I, D284P, N285M, P287T, K394R, G463A, D469Y, A470S
B28: I283T-P284D-N287P-S322T-N388M-C430N-L432F-L434W-S436N-E459P-A463G-Y469D (protein)
chain: B1 chain with S283T, E459P
B29: I283T-P284D-E286C-N287P-S322T-N388M-C430N-L432F-L434W-S436N-A463G-Y469D (protein)
chain: B1 chain with S283T, E286C
B30: I283T-P284D-N287P-S322T-N388M-C430N-L432F-L434W-S436N-H444R-A463G-Y469D (protein)
chain: B1 chain with S283T, H444R
B31: I283T-P284D-N287P-S322T-N388M-S429A-C430N-L432F-L434W-S436N-A463G-Y469D (protein)
chain: B1 chain with S283T, S429A
B32: N388M-K394H-C430S-L432F-L434W-S436N (protein)
chain: B1 chain with S283I, D284P, P287N, T322S, K394H, N430S, G463A, D469Y
B33: N285M-N287T-S322T-N388M-K394R-C430N-L432F-L434W-S436N-dG462-A470S (protein)
chain: B1 chain with S283I, D284P, N285M, P287T, K394R, G463A, D469Y, A470S
B34: N285M-N287T-S322T-N388M-K394R-C430N-L432F-L434W-S436N-dG462-A463F (protein)
chain: B1 chain with S283I, D284P, N285M, P287T, K394R, G463F, D469Y
B35: I283T-P284D-N287P-S322T-N388M-C430N-L432F-L434W-S436N-A463F-Y469D (protein)
chain: B1 chain with S283T, G463F

Each molecule was assayed on 3-methylcrotonic acid.
Type: biochemical, Yersinia frederiksenii
Set-up: key: “+” representing a low increase in activity; “++++” representing a high increase in activity
With B1 the “Activity relative to WT” value was “++++”.
B2 was tested, and the “Activity relative to WT” value was “++++”.
In the case of B3, the “Activity relative to WT” value is reported as “++++”.
B4 was tested, and the “Activity relative to WT” value was “++++”.
For B5, the “Activity relative to WT” value was “++++”.
In the case of B6, the “Activity relative to WT” value is reported as “++++”.
With B7 the “Activity relative to WT” value was “++++”.
With B8 the “Activity relative to WT” value was “++++”.
B9 was tested, and the “Activity relative to WT” value was “++++”.
B10 was tested, and the “Activity relative to WT” value was “++++”.
For B11, the “Activity relative to WT” value was “++++”.
For B12, the “Activity relative to WT” value was “++++”.
In the case of B13, the “Activity relative to WT” value is reported as “++++”.
B14 was tested, and the “Activity relative to WT” value was “++++”.
B15 was tested, and the “Activity relative to WT” value was “++++”.
In the case of B16, the “Activity relative to WT” value is reported as “+”.
B17 was tested, and the “Activity relative to WT” value was “++++”.
In the case of B18, the “Activity relative to WT” value is reported as “++++”.
For B19, the “Activity relative to WT” value was “++++”.
For B20, the “Activity relative to WT” value was “++++”.
In the case of B21, the “Activity relative to WT” value is reported as “++++”.
With B22 the “Activity relative to WT” value was “++++”.
For B23, the “Activity relative to WT” value was “++++”.
In the case of B24, the “Activity relative to WT” value is reported as “++++”.
B25 was tested, and the “Activity relative to WT” value was “+”.
With B26 the “Activity relative to WT” value was “++++”.
With B27 the “Activity relative to WT” value was “++++”.
With B28 the “Activity relative to WT” value was “++++”.
With B29 the “Activity relative to WT” value was “++++”.
With B30 the “Activity relative to WT” value was “++++”.
B31 was tested, and the “Activity relative to WT” value was “++++”.
With B32 the “Activity relative to WT” value was “+”.
In the case of B33, the “Activity relative to WT” value is reported as “++++”.
B34 was tested, and the “Activity relative to WT” value was “++++”.
For B35, the “Activity relative to WT” value was “++++”.
